Reference: patent publication US20250262210A1 (TRUSTEES OF COLUMBIA UNIVERSITY IN THE CITY OF NEW YORK, published 2025)

Columns and labels:
Assay in all cases: IP/MS, LZTR1 wild type-FLAG, U87
[1] = target: HTT (human, UniProt P42858 1-3142)
Outline: (§1)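 Extracted peptides in 3% acetonitrile/0.1% formic acid ran on a 50 cm C18 column into an Orbitrap Fusion, with MaxQuant identification and spectral counting.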

[2] = target: T1, AP4E1 (human, UniProt Q9UPM8 1-1137, limits assumed)
T1 sequence (looked up): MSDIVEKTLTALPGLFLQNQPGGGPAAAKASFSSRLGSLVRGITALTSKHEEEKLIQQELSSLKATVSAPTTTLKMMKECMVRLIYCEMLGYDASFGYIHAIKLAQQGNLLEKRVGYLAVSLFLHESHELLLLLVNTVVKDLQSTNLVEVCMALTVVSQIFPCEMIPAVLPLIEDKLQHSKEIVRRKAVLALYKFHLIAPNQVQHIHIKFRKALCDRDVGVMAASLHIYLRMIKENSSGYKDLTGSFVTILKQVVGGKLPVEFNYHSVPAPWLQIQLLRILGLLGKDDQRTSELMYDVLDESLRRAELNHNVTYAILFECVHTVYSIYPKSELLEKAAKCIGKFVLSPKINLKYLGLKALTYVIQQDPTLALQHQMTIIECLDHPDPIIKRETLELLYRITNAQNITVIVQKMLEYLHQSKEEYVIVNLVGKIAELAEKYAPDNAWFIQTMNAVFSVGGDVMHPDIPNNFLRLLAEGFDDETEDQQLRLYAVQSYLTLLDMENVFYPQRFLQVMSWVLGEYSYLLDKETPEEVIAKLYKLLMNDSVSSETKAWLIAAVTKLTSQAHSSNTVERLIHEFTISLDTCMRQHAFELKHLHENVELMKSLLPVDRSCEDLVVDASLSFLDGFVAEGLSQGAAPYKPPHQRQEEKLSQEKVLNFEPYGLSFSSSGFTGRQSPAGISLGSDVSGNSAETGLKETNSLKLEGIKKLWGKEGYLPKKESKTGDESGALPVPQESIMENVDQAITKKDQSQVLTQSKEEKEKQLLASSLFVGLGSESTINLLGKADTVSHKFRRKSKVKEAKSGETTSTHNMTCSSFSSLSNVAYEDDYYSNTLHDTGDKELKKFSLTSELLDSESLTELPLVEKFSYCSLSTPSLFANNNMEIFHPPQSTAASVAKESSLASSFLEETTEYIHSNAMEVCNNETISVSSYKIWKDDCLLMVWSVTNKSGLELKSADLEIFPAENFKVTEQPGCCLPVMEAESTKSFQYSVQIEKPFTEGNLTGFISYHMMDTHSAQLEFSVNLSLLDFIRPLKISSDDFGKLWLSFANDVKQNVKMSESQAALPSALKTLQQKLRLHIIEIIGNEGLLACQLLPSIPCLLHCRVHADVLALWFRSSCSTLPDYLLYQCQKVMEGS
Outline: as §1

[3] = target: T2, SEC24D (human, UniProt O94855 1-1032, limits assumed)
T2 sequence (looked up): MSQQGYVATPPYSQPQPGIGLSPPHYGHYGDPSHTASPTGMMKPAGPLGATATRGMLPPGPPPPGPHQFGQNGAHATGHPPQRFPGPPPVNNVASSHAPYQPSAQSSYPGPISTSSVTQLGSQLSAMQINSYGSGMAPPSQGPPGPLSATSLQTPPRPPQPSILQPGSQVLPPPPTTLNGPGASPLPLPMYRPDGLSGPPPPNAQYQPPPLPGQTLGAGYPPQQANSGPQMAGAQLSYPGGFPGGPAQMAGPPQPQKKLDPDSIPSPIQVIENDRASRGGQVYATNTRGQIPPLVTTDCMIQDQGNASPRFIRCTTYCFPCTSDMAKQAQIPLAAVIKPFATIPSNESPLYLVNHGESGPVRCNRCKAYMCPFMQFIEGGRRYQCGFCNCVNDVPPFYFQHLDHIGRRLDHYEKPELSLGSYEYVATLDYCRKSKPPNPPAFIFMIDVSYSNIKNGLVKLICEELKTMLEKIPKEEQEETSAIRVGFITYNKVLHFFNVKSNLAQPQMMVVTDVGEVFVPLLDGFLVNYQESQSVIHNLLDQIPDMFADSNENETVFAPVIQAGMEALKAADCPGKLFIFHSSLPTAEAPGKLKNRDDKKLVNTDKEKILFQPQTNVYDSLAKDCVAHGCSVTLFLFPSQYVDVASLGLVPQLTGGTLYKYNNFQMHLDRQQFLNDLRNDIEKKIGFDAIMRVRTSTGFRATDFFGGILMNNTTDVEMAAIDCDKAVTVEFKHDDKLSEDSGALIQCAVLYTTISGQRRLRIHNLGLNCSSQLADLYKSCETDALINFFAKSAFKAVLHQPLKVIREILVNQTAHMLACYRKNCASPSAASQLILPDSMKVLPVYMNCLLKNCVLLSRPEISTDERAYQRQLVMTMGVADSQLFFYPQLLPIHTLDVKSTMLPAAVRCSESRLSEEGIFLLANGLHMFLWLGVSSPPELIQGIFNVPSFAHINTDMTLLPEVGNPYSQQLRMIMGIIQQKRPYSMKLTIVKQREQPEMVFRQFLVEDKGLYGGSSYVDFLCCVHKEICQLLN
Outline: as §1

[4] = target: PTPN23 (human, UniProt Q9H3S7 1-1636)
Sequence of PTPN23 (Q9H3S7 whole entry): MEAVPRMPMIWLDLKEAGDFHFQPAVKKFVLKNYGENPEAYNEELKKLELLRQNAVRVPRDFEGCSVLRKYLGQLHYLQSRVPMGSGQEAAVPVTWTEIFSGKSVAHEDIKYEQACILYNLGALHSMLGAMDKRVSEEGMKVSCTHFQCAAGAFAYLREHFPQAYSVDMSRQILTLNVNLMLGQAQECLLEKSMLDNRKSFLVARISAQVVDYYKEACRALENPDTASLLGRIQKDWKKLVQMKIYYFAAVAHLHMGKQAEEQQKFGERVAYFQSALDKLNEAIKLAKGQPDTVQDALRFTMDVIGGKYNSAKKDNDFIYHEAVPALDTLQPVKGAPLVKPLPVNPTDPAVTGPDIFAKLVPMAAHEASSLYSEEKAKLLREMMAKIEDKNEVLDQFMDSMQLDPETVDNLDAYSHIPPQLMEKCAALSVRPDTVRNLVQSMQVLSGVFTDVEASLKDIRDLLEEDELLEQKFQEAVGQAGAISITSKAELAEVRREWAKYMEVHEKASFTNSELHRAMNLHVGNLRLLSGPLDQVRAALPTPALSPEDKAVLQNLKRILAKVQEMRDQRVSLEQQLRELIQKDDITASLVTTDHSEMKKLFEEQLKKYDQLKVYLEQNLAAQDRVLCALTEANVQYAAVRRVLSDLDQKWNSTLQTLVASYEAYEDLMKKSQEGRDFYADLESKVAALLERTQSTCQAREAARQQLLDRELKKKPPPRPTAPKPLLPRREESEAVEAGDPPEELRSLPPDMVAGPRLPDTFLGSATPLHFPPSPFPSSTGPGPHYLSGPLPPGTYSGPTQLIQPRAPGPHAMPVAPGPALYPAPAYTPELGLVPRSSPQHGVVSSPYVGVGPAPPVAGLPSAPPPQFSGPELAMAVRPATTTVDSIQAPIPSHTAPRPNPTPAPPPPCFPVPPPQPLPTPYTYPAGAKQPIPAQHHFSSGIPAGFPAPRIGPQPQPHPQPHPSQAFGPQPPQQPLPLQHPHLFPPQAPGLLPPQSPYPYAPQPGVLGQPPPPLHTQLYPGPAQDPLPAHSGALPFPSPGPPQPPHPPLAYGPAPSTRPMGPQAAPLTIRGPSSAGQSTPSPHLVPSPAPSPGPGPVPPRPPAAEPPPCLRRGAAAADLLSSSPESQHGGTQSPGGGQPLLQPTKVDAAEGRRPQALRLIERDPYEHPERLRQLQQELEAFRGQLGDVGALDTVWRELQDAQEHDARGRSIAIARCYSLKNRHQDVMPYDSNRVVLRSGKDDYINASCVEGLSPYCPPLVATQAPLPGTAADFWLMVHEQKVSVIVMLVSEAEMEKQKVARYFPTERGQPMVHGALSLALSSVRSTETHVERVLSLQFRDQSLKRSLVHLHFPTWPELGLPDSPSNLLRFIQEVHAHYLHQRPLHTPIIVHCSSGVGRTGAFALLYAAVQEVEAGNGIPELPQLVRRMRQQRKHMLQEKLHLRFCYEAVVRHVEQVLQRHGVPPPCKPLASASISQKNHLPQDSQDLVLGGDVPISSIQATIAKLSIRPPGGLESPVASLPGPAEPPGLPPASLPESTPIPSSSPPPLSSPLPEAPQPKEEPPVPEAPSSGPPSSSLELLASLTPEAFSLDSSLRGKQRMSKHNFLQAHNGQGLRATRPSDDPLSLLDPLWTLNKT
Outline: as §1

[5] = target: ARFGEF1 (human, UniProt Q9Y6D6 1-1849)
Outline: as §1

Measured: binding result

Sequence of HTT (P42858 whole entry, the tested form may be a part): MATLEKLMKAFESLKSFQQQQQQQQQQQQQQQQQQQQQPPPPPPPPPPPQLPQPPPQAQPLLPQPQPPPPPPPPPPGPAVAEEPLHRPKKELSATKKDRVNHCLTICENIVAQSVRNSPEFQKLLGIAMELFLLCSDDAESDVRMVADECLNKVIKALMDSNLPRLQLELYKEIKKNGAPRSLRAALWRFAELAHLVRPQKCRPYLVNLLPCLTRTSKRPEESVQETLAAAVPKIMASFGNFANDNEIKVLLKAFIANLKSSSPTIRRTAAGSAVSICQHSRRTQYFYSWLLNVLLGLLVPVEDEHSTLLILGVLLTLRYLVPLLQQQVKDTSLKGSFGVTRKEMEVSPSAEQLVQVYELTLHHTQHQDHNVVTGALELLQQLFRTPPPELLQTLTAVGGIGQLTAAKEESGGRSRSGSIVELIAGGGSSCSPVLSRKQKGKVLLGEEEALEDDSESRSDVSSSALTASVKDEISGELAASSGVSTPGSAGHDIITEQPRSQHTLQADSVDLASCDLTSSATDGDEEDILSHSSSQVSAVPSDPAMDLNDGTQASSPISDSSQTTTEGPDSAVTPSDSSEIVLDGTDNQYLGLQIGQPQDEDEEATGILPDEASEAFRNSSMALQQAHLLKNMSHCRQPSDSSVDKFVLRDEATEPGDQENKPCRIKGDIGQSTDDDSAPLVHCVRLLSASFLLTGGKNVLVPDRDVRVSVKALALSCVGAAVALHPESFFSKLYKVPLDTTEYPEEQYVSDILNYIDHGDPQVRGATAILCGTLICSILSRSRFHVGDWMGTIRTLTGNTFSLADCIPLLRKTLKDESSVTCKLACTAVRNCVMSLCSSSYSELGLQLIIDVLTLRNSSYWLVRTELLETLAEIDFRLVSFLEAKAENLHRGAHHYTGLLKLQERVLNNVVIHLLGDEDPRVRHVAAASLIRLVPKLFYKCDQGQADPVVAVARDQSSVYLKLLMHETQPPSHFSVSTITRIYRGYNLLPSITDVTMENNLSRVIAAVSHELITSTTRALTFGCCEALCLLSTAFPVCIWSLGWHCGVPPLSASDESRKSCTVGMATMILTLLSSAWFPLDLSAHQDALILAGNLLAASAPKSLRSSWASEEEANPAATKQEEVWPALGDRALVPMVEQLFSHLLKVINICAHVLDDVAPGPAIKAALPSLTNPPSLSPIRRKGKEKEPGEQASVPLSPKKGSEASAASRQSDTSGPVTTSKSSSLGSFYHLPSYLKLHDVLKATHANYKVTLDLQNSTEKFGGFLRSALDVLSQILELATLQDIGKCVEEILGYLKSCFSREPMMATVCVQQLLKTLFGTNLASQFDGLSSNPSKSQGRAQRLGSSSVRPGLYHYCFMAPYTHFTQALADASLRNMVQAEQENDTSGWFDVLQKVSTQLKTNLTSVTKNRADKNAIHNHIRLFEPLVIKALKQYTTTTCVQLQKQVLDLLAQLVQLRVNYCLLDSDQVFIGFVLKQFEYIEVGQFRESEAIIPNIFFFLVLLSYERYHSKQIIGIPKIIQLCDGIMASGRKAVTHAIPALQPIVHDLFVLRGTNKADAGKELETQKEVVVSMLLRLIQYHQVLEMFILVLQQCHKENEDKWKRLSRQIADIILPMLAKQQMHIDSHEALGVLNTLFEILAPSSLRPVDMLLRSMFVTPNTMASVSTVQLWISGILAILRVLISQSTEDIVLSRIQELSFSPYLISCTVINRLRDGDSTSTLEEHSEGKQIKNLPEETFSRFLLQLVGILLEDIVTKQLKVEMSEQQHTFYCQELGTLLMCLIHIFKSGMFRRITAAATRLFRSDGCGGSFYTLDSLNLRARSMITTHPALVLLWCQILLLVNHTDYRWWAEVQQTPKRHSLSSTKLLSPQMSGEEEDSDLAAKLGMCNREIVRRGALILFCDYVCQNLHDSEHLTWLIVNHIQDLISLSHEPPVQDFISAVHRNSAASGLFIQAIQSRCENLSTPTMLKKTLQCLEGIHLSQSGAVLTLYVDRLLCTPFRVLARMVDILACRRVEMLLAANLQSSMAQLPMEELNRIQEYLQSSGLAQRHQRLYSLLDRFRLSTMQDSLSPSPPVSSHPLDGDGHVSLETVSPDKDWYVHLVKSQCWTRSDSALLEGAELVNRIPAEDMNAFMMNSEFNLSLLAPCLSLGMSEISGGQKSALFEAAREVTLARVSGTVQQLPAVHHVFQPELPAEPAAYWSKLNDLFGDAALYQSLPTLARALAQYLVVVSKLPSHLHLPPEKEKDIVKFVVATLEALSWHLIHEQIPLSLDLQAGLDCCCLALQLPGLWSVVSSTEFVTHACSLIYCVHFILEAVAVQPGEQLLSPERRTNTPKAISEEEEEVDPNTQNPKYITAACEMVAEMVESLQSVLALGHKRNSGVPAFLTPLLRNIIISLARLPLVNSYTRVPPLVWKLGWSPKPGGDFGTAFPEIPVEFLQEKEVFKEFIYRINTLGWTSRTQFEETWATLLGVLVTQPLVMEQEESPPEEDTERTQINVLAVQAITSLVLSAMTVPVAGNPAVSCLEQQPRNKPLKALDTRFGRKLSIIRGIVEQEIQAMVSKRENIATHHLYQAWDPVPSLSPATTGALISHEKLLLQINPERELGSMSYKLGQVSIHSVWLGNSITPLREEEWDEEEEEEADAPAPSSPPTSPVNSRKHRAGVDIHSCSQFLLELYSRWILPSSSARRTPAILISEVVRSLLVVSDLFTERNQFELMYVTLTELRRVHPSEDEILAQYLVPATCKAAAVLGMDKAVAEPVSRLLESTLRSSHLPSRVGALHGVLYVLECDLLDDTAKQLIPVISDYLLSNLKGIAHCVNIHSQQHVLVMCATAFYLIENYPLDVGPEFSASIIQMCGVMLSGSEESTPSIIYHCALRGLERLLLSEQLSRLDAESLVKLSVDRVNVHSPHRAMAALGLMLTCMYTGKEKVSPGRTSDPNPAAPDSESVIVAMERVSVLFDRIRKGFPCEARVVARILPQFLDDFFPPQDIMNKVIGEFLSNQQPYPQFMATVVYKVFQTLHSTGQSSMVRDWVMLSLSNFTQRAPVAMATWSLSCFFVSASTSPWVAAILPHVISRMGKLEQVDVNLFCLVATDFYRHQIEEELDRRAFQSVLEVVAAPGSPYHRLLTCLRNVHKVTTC

B1: LZTR1-FLAG (other, human, UniProt Q8N653 1-840, looked up)
chain: MAGPGSTGGQIGAAALAGGARSKVAPSVDFDHSCSDSVEYLTLNFGPFETVHRWRRLPPCDEFVGARRSKHTVVAYKDAIYVFGGDNGKTMLNDLLRFDVKDCSWCRAFTTGTPPAPRYHHSAVVYGSSMFVFGGYTGDIYSNSNLKNKNDLFEYKFATGQWTEWKIEGRLPVARSAHGATVYSDKLWIFAGYDGNARLNDMWTIGLQDRELTCWEEVAQSGEIPPSCCNFPVAVCRDKMFVFSGQSGAKITNNLFQFEFKDKTWTRIPTEHLLRGSPPPPQRRYGHTMVAFDRHLYVFGGAADNTLPNELHCYDVDFQTWEVVQPSSDSEVGGAEVPERACASEEVPTLTYEERVGFKKSRDVFGLDFGTTSAKQPTQPASELPSGRLFHAAAVISDAMYIFGGTVDNNIRSGEMYRFQFSCYPKCTLHEDYGRLWESRQFCDVEFVLGEKEECVQGHVAIVTARSRWLRRKITQARERLAQKLEQEAAPVPREAPGVAAGGARPPLLHVAIREAEARPFEVLMQFLYTDKIKYPRKGHVEDVLLIMDVYKLALSFQLCRLEQLCRQYIEASVDLQNVLVVCESAARLQLSQLKEHCLNFVVKESHFNQVIMMKEFERLSSPLIVEIVRRKQQPPPRTPLDQPVDIGTSLIQDMKAYLEGAGAEFCDITLLLDGHPRPAHKAILAARSSYFEAMFRSFMPEDGQVNISIGEMVPSRQAFESMLRYIYYGEVNMPPEDSLYLFAAPYYYGFYNNRLQAYCKQNLEMNVTVQNVLQILEAADKTQALDMKRHCLHIIVHQFTKVSKLPTLRSLSQQLLLDIIDSLASHISDKQCAELGADI
notes: Expressed in HEK 293T, HeLa or U87 cells; used as cell lysate; also called LZTR1 wild type-FLAG; LZTR1 WT; not shown: FLAG tag at the C-terminus
binds: [1] | [2] | [3] | [4] | [5]
